Consider 1 protein from PMC11008285 (Cell reports, 2024).

This series deals with the molecule itself.

B1: full-length CARD9 (natural protein, UniProt Q9H257 1-536, looked up)
chain: MSDYENDDECWSVLEGFRVTLTSVIDPSRITPYLRQCKVLNPDDEEQVLSDPNLVIRKRKVGVLLDILQRTGHKGYVAFLESLELYYPQLYKKVTGKEPARVFSMIIDASGESGLTQLLMTEVMKLQKKVQDLTALLSSKDDFIKELRVKDSLLRKHQERVQRLKEECEAGSRELKRCKEENYDLAMRLAHQSEEKGAALMRNRDLQLEIDQLKHSLMKAEDDCKVERKHTLKLRHAMEQRPSQELLWELQQEKALLQARVQELEASVQEGKLDRSSPYIQVLEEDWRQALRDHQEQANTIFSLRKDLRQGEARRLRCMEEKEMFELQCLALRKDSKMYKDRIEAILLQMEEVAIERDQAIATREELHAQHARGLQEKDALRKQVRELGEKADELQLQVFQCEAQLLAVEGRLRRQQLETLVLSSDLEDGSPRRSQELSLPQDLEDTQLSDKGCLAGGGSPKQPFAALHQEQVLRNPHDAGLSSGEPPEKERRRLKESFENYRRKRALRKMQKGWRQGEEDRENTTGSDNTDTEGS
By stoichiometry N is commonly meant a count of units in the complex or per binding partner. Take B1: the “stoichiometry N” value was 4.
